This is an account of results in article PMC3678129.

Substrate in the data set: CCn1c(=NN=c2sc3cc(S(=O)(=O)O)ccc3n2CC)sc2cc(S(=O)(=O)O)ccc21
Description: purified protein. The following applies: H2O2 25 mM (saturating), no added Ca2+, 100 mM Tris-HCl pH 7.0.

B1: Euphorbia characias latex peroxidase (ELP) (Euphorbia characias) (protein)
chain: QTKPPIVNGLSWTFYKSSCPKVESIIQKELKKLFKKDVEQAAGLLRLHFHDCFVLGCDGSVLLNGSAGGPSEQSELPNLSLRKQAFKIVNDLRALVHKECGPVVSCSDIVAIAARDSVVLTGGPKYDVPLGRRDGVKFAEVNATFEHLVGPTANVTTILAKLARKGLDTTDAVSLSGGHTIGIGHCTSFTERLYPSQDPTLDKTFANNLKRTCPNVNTENSTFLDLRTPNEFDNRYYVDLMNRQGLFTSDQDLYTDKRTRQIVIDFAVNQTLFYEKFIIGMIKMGQLEVVTGNQGEIRNDCSFRNSDNYLVSVTDEESGSSSELR
Broadly, the Km is the concentration of substrate that gives half-maximal velocity. The term kcat denotes the maximal rate divided by the concentration of active sites. The term kcat/Km denotes the turnover number divided by the Michaelis constant. As for B1, the Km is 550 ± 20 µM, the kcat is 170 ± 11 s⁻¹ and the kcat/Km was 309000 M⁻¹ s⁻¹.
